In patent US7291492B2, “Histone deacetylase 9” (The Institute of Cancer Research, priority 2001, dated 2007):

System: histone H4 peptide
Assay: in-vitro histone deacetylase assay with anti-FLAG immunoprecipitated HDAC, [3H]acetyl-labelled histone H4 peptide
Type: biochemical
Conditions: FLAG-tagged HDAC from 293T cells, FIG. 5A
Procedure: A. HDAC9 deacetylates histone H4 peptide. 293T cells were transfected with FLAG-tagged HDAC. Whole cell lysates were produced and the HDACs precipitated with anti-FLAG agarose. The beads were assayed for their ability to deacetylate a [^3H]acetyl-labelled peptide corresponding to the N-Terminus of histone H4. Free acetate was extracted and measured by scintillation counting.
Higher activities of HDAC9 have been detected towards peptide substrates derived from histone H3 than from histone H4 (FIGS. 7A and B).

B1: HDAC9: wild-type histone deacetylase 9, a 1069 amino acid polypeptide, class II histone deacetylase (protein)
chain: MHSMISSVDVKSEVPVGLEPISPLDLRTDLRMMMPVVDPVVREKQLQQELLLIQQQQQIQKQLLIAEFQKQHENLTRQHQAQLQEHIKLQQELLAIKQQQELLEKEQKLEQQRQEQEVERHRREQQLPPLRGKDRGRERAVASTEVKQKLQEFLLSKSATKDTPTNGKNHSVSRHPKLWYTAAHHTSLDQSSPPLSGTSPSYKYTLPGAQDAKDDFPLRKTASEPNLKVRSRLKQKVAERRSSPLLRRKDGNVVTSFKKRMFEVTESSVSSSSPGSGPSSPNNGPTGSVTENETSVLPPTPHAEQMVSQQRILIHEDSMNLLSLYTSPSLPNITLGLPAVPSQLNASNSLKEKQKCETQTLRQGVPLPGQYGGSIPASSSHPHVTLEGKPPNSSHQALLQHLLLKEQMRQQKLLVAGGVPLHPQSPLATKERISPGIRGTHKLPRHRPLNRTQSAPLPQSTLAQLVIQQQHQQFLEKQKQYQQQIHMNKLLSKSIEQLKQPGSHLEEAEEELQGDQAMQEDRAPSSGNSTRSDSSACVDDTLGQVGAVKVKEEPVDSDEDAQIQEMESGEQAAFMQQPFLEPTHTRALSVRQAPLAAVGMDGLEKHRLVSRTHSSPAASVLPHPAMDRPLQPGSATGIAYDPLMLKHQCVCGNSTTHPEHAGRIQSIWSRLQETGLLNKCERIQGRKASLEEIQLVHSEHHSLLYGTNPLDGQKLDPRILLGDDSQKFFSSLPCGGLGVDSDTIWNELRSSGAARMAVGCVIELASKVASGELKNGFAVVRPPGHHAEESTAMGFCFFNSVAITAKYLRDQLNISKILIVDLDVHHGNGTQQAFYADPSILYISLHRYDEGNFFPGSGAPNEVGTGLGEGYNINIAWTGGLDPPMGDVEYLEAFRTIVKPVAKEFDPDMVLVSAGFDALEGHTPPLGGYKVTAKCFGHLTKQLMTLADGRVVLALEGGHDLTAICDASEACVNALLGNELEPLAEDILHQSPNMNAVISLQKIIEIQSKYWKSVRMVAVPRGCALAGAQLQEETETVSALASLTVDVEQPFAQEDSRTAGEPMEEEPAL
modifications: left off: a dimerising Fc or GST
notes: wild-type histone deacetylase 9, a 1069 amino acid polypeptide, class II histone deacetylase
**Q.** Which “histone deacetylase activity relative to HDAC1” value does the source give for B1 here?
**A.** about 25%

**Q.** What about the “histone deacetylase activity relative to HDACs 4 and 5” value of the same molecule?
**A.** ~50%
